The text below walks through data of paper doi:10.1101/2024.05.10.593077.

pKd: −log10 of the molar value. Values joined by “and” are separate entries in the source; they are usually repeats but may differ in a detail not shown here. Equal values may be shown once.

Assay [1] addresses Human FcγRI (WT) (human) (UniProt P12314). Nature of the assay: SPR. (In SPR one partner is held on a chip, and binding of the other changes the refractive index at the surface.)
Assay [2] shares this target. The experiment in a line: high-speed atomic force microscopy.
For assay [3], the target named is Trastuzumab ΔP230 (IgG1 with deletion of Pro230 in the lower hinge) (human). The experiment in a line: SEC. On the technique in general: In gel filtration, larger molecules generally elute earlier.

UniProt P12314, sequence (P12314 16-292): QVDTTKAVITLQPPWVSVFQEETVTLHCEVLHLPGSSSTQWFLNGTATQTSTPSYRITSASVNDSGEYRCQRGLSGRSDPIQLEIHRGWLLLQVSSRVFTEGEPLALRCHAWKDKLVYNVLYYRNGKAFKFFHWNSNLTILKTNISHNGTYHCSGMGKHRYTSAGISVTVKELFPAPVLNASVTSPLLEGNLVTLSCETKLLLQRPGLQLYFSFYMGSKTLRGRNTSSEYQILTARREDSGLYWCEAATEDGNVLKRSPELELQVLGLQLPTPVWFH

As usually defined, the pKd is the negative decadic logarithm of the Kd, by convention in mol/L. The low end stands for a large Kd, the high end for a small Kd. As to “Trastuzumab CSCS (IgG1 with the double substitution Cys226Ser and Cys229Ser) (antibody)”, in the assay with Human FcγRI (WT) (human) [1], the pKd is 9.04.

For “Trastuzumab WT, anti-HER2 humanized IgG1 (antibody)”, the pKd with Human FcγRI (WT) (human) [1] was 9.05. Further, in the assay with Human FcγRI (WT) (human) [2], the stoichiometry N (IgG1 WT:FcγRI) amounted to 1.

With “Trastuzumab ΔP230 (IgG1 with deletion of Pro230 in the lower hinge) (antibody)”, in the assay with Human FcγRI (WT) (human) [1], the pKd was 7.63. Moreover, in assay [3], the ratio monomer:dimer (monomer:dimer) worked out at 6. For the same substance, the stoichiometry N (ΔP230:FcγRI (mol:mol)) with Human FcγRI (WT) (human) [2] was 1 and 2.
